This is an account of results in paper PMC7083937, “The ribosome-associated complex RAC serves in a relay that directs nascent chains to Ssb” (Nature Communications, 2020).

In data set [1] the target is T1, ScSsz1-Zuo1NΔLP complex (ScSsz1 with ScZuo1NΔLP residues 10-50) (S. cerevisiae, UniProt P38788 1-538; P32527 10-50).
T1 construct: Ssz1, S. cerevisiae; Zuo1, S. cerevisiae, residues 10-50, lacking the LP-motif (ScZuo1NΔLP); residues of the 3C site may be left on Zuo1NΔLP; not shown: His6-MBP, N-terminal, cleaved
T1 sequence (looked up) 1: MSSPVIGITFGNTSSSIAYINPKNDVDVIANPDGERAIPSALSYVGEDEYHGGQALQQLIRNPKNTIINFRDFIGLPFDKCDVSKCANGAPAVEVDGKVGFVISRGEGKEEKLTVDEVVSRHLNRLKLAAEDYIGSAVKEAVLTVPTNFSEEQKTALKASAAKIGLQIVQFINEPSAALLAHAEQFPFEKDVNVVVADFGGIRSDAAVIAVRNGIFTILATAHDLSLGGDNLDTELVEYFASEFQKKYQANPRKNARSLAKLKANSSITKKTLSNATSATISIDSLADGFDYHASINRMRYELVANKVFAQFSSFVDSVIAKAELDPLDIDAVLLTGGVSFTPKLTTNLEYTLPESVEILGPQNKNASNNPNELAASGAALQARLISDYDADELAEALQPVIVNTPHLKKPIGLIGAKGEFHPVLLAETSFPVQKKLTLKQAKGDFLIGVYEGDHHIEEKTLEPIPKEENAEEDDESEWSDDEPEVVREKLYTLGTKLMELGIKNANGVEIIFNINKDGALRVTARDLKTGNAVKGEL
T1 sequence (looked up) 2: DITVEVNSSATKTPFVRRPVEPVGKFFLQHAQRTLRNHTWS
Description: fluorescence polarisation; fluorescence anisotropy; two-fold serial dilutions of the protein complex mixed 1:1 with 40 nM fluorescein peptide; 20 mM Hepes/KOH pH 7.5, 200 mM KCl, 5 mM MgCl2, 1 mM DTT, 1 µM BSA; room temperature, 30 min; one-site binding fit; affinity called estimated. Particulars: both partners purified.

Data set [2] deals with ScSsz1-Zuo1NΔLP. Description: nanoDSF melting temperature with/without LP-peptide. The class given is binding, Saccharomyces cerevisiae. Particulars: DMSO negative control (<0.5%), pH 7.5, 200 mM KCl, 20 to 90 °C at 1.5 °C/min, three measurements shown. The procedure:
(§1) The melting temperature of ScSsz1-Zuo1N, ScSsz1-Zuo1NΔLP or ScSsz1mut-Zuo1NΔLP with or without the LP-peptide (Peptide Specialty Laboratories GmbH, Heidelberg) were determined using the Prometheus NT.48 nanoDSF system using nano-DSF grade capillaries (NanoTemper Technologies GmbH). The measurements were performed in 20 mM Hepes/KOH pH 7.5, 200 mM KCl, 5 mM MgCl2, 1 mM DTT. The LP-peptide, which was dissolved in DMSO, was pre-diluted in the above buffer such that the final DMSO concentration in the experiment was below 0.5%. DMSO diluted in the same way was added to the negative control. Intrinsic protein fluorescence was measured continuously at 330 nm and 350 nm with a temperature gradient ranging from 20 to 90 °C at a rate of 1.5 °C/min. […]
(§2) (a-b) NanoDSF analysis of Ssz1-Zuo1N (blue) and Ssz1-Zuo1NDLP (orange) in a and Ssz1-Zuo1NDLP wit hout t he LP-pept ide (orange) or wit h t he LP-pept ide (blue) in b. Three measurements are shown.
(§3) Source data are provided as a Source Dat a f ile.
(§4) (c) Residues (L439S/K440P/I448F/G495K) mutated in Ssz1mut to block substrate binding to Ssz1-SBDb (cyan) are in stick representation (upper panel). Zuo1N is shown in orange a nd the LP-motif in yellow. Multiple sequence alignment of Hsp70 homologs (lower panel) wit h the mutations highlighted in yellow. The alignment is colored as in Fig. 2a. […]
(Differential scanning fluorimetry follows unfolding on heating by fluorescence.)

The nature of data set [3]: nanoDSF thermal stability of RAC core complexes. It counts as physicochemical, Saccharomyces cerevisiae. Particulars: 20 mM Hepes/KOH pH 7.5, 200 mM KCl, 5 mM MgCl2, 1 mM DTT, 20 to 90 °C at 1.5 °C/min, 330/350 nm, no peptide, three measurements shown. The method, then: as §1, §2, §3, §4
For data set [4], the target named is T1, ScSsz1-Zuo1NΔLP complex (ScSsz1 with …). Kind of data set: nanoDSF; melting temperature of the complex with or without LP-peptide; 20 mM Hepes/KOH pH 7.5, 200 mM KCl, 5 mM MgCl2, 1 mM DTT; 20 to 90 °C at 1.5 °C/min. Particulars: both partners purified.

No end group written: not given here. fluorescein = fluorescein (N-terminal label)

B1: LP-peptide (MFSLPTL) labelled at the N terminus with fluorescein (peptide)
peptide: fluorescein-MFSLPTL
notes: LP-motif of Zuo1, S. cerevisiae, residues 1-7; source: synthetic peptide (Peptide Specialty Laboratories GmbH, Heidelberg)
In general, Kd refers to a measure of binding affinity in units of concentration. Turning to B1, the Kd in data set [1] was 11.9 ± 4 µM.

B2: Ssz1-Zuo1NΔLP: ScSsz1 with ScZuo1NΔLP (residues 10-50) lacking the LP-motif (protein)
chain 1: T1 sequence (looked up) 1
chain 2: T1 sequence (looked up) 2
modifications: left off: His6-SUMO, N-terminal, state not stated | His6-MBP, N-terminal, cleaved
notes: ScSsz1 with ScZuo1NΔLP (residues 10-50) lacking the LP-motif
Regarding B2, the “melting temperature of Ssz1-Zuo1NΔLP without LP-peptide” value in data set [2] is 40.3 °C. Further, in data set [3], the “melting temperature (thermal stability of RAC core complex)” value is 39.7 °C.

B3: LP-peptide (MFSLPTL, ScZuo1 residues 1-7), free peptide (peptide)
peptide: MFSLPTL
notes: as for B1
For B3, the binding result in data set [4] is on record as “binds”.
